Sequences and labels used below:
T1: Irc6p (Saccharomyces cerevisiae, UniProt P43615)
T1 sequence (P43615 1-237): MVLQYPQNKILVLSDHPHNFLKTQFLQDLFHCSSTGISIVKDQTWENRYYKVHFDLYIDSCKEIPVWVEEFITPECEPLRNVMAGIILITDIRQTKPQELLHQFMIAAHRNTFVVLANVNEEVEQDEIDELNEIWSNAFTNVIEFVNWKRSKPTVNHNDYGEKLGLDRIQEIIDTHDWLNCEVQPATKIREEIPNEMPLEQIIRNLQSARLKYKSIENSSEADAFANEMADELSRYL

T2: FLAG-tagged Irc6p (recombinant, purified) (yeast (S. cerevisiae), UniProt P43615 1-237)
T2 sequence (looked up): T1 sequence (P43615 1-237)

T3: FLAG-Irc6p-K22A (yeast (S. cerevisiae), UniProt P43615 1-237, K22A)
T3 sequence (looked up): T1 sequence (P43615 1-237) with K22A

B1: FLAG-Irc6pΔC (Irc6p N-terminal region) (domain or fragment, yeast (S. cerevisiae), UniProt P43615 1-179, looked up)
chain: MVLQYPQNKILVLSDHPHNFLKTQFLQDLFHCSSTGISIVKDQTWENRYYKVHFDLYIDSCKEIPVWVEEFITPECEPLRNVMAGIILITDIRQTKPQELLHQFMIAAHRNTFVVLANVNEEVEQDEIDELNEIWSNAFTNVIEFVNWKRSKPTVNHNDYGEKLGLDRIQEIIDTHDWL
B2: GST-Ypt31p (natural protein, yeast (S. cerevisiae), UniProt P38555 1-223, looked up)
chain: MSSEDYGYDYDLLFKIVLIGDSGVGKSNLLSRFTKNEFNMDSKSTIGVEFATRTLEIDGKRIKAQIWDTAGQERYRAITSAYYRGAVGALIVYDISKSSSYENCNHWLSELRENADDNVAVGLIGNKSDLAHLRAVPTEESKTFAQENQLLFTETSALNSENVDKAFEELINTIYQKVSKHQMDLGDSSANGNANGASAPNGPTISLTPTPNENKKANGNNCC
B3: FLAG-Irc6pCT (Irc6p C-terminal region) (domain or fragment, yeast (S. cerevisiae), UniProt P43615 179-237, looked up)
chain: LNCEVQPATKIREEIPNEMPLEQIIRNLQSARLKYKSIENSSEADAFANEMADELSRYL

For one test, the target named is T1, Irc6p. As to the kind of experiment: limited proteolysis. Format: binding. As to conditions: pH 8, 10 mM CaCl2, 24°C; indirect evidence.
The test “GST-Ypt31p” deals with B2. Briefly: pull-down.
Test [1] has as its target T2, FLAG-tagged Irc6p (recombinant, …). As to the kind of experiment: pull-down.
The target in another test is T3, FLAG-Irc6p-K22A. Briefly: pull-down.

Changes are numbered by the printed parent chain.

On to `Nc1nc2c(ncn2[C@@H]2O[C@H](COP(=O)(O)OP(=O)(O)NP(=O)(O)O)[C@@H](O)[C@H]2O)c(=O)[nH]1` [GMPPNP], for which the “limited proteolysis (chymotrypsin), protection” value on Irc6p was “by limited proteolysis was slowed in the presence of GMPPNP (Figure S2B)”.
Turning to B1, the binding result with GST-Ypt31p is reported as “binds”.
On to B2, for which the binding result (in test [1]; with FLAG-Irc6p-K22A) was “binds” in each case.
B3: in the test with GST-Ypt31p, the binding result is given as “binds”.
